± gives the uncertainty stated by the source.
Test: self-splicing fitness, log relative to wild type (ln ratio); higher = more splicing; Tetrahymena group I intron in knt gene, E. coli kanamycin selection, DiMSum; sequences stand for … in CUCUCU…GGAGGGAAAAGUUAUCAGGCAUGCACCUGGUAGCUAGUCUUUAAACCAAUAGAUUGCAUCGGUUUAAAAGGCAAGACCGUCAAAUUGCGGGAAAGGGGUCAACAGCCGUUCAGUACCAAGUCUCAGGGGAAACUUUGAGAUGGCCUUGCAAAGGGUAUGGUAAUAAGCUGACGGACAUGGUCCUAACCACGCAGCCAAGUCCUAAGUCAACAGAUCUUCUGUUGAUAUGGAUGCAGUUCACAGACUAAAUGUCGGUCGGGGAAGAUGUAUUCUUCUCAUAAGAUAUAGUCGGACCUCUCCUUAAUGGGAGCUAGCGGAUGAAGUGAUGCAACACUGGAGCCGCUGGGAACUAAUUUGUAUGCGAAAGUAUAUUGAUUAGUUUUGGAGUACUCGUGGUCG
Outline: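 A randomised library covering all eight P1ex-region intron nucleotides was built with the intron in the knt kanamycin-resistance gene on pET-22b(+) and held in E. coli BL21(DE3). Cells were grown overnight at 37°C or 30°C on LB agar, with or without 25 μg/mL kanamycin, plus 100 μg/mL carbenicillin, 50 μM IPTG and 0.2% rhamnose, and pooled colonies were amplicon-sequenced on an Illumina HiSeq 2500. DiMSum fitness is the error-weighted combination of wild-type-normalised replicate fold changes, kanamycin versus none.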

Row | Sequence | self-splicing fitness (ln) (30 °C) | self-splicing fitness (ln) (37 °C)
1 | ACAAAGCAAUAUUACGACCC | -0.934 ± 0.16 | 0.532 ± 0.21
2 | ACAAAGCAAUAUUACGAGCG | -0.894 ± 0.084 | 0.57 ± 0.096
3 | ACAAAGCAAUAUUACGAGUA | -3.03 ± 0.16 | -1.7 ± 0.11
4 | ACAAAGCAAUAUUACGAUAC | -2.89 ± 0.2 | -2.29 ± 0.16
5 | ACAAAGCAAUAUUACGAUCA | -0.675 ± 0.066 | -0.735 ± 0.093
6 | ACAAAGCAAUAUUACGAUCC | -1.55 ± 0.071 | 0.389 ± 0.1
7 | ACAAAGCAAUAUUACGCAAU | -1.87 ± 0.078 | -1.6 ± 0.092
8 | ACAAAGCAAUAUUACGCCGA | -2.13 ± 0.15 | -0.465 ± 0.13
9 | ACAAAGCAAUAUUACGCGGG | -2.47 ± 0.09 | -1.01 ± 0.09
10 | ACAAAGCAAUAUUACGCUAC | -3.07 ± 0.28 | -2.43 ± 0.33
11 | ACAAAGCAAUAUUACGCUGC | -3.63 ± 0.25 | -1.26 ± 0.21
12 | ACAAAGCAAUAUUACGCUUU | -3.64 ± 0.24 | -2.16 ± 0.17
13 | ACAAAGCAAUAUUACGGAAC | -3.33 ± 0.13 | -2.43 ± 0.15
14 | ACAAAGCAAUAUUACGGAGC | -3.17 ± 0.13 | -2.62 ± 0.15
15 | ACAAAGCAAUAUUACGGAUA | -2.14 ± 0.2 | -1.68 ± 0.17
16 | ACAAAGCAAUAUUACGGCAC | -1.61 ± 0.079 | -0.954 ± 0.12
17 | ACAAAGCAAUAUUACGGCAG | -1.1 ± 0.064 | -0.658 ± 0.088
18 | ACAAAGCAAUAUUACGGGUA | -1.86 ± 0.09 | -0.94 ± 0.087
19 | ACAAAGCAAUAUUACGGGUC | -3.18 ± 0.14 | -1.76 ± 0.2
20 | ACAAAGCAAUAUUACGGUGC | -2.89 ± 0.12 | -2.32 ± 0.12
21 | ACAAAGCAAUAUUACGUAUU | -1.94 ± 0.086 | -1.18 ± 0.11
22 | ACAAAGCAAUAUUACGUCAA | -3.26 ± 0.25 | -1.66 ± 0.14
23 | ACAAAGCAAUAUUACGUCUC | -4.03 ± 0.18 | -2.09 ± 0.14
24 | ACAAAGCAAUAUUACGUUAG | -2.73 ± 0.11 | -2.69 ± 0.17

From the supplement of paper PMC7877785
